Measurements reported in article PMC5400778.

Target: His-tagged BG505 SOSIP.664 trimer with the N185h glycan site removed (HIV (isolate BG505)) (UniProt Q2N0S6)
Assay: SPR; Biacore 3000, 25°C; His-tagged BG505 SOSIP trimers immobilised on the chip by His-tag capture; PGT145 Fab as analyte; kinetic analysis

B1: PGT145 Fab (Fab, V domains shown)
VH: QVQLVQSGAEVKKPGSSVKVSCKASGNSFSNHDVHWVRQATGQGLEWMGWMSHEGDKTGLAQKFQGRVTITRDSGASTVYMELRGLTADDTAIYYCLTGSKHRLRDYFLYNEYGPNYEEWGDYLATLDVWGHGTAVTVSS
VL: EVVITQSPLFLPVTPGEAASLSCKCSHSLQHSTGANYLAWYLQRPGQTPRLLIHLATHRASGVPDRFSGSGSGTDFTLKISRVESDDVGTYYCMQGLHSPWTFGQGTKVEIK
stoichiometry N: 0.96
